Where a chain is given by its changes, count along the chain named.

Data on 49 molecules can be found in patent publication US20250026849A1 (ARCELLX, published 2025).

T1: BCMA (Homo sapiens (Human), UniProt Q02223 1-54, limits assumed)
T1 sequence: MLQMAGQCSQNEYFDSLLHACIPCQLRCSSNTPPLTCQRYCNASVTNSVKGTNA

B1: D-domain SEQ ID NO: 282 (designed binder)
chain: MGSWQNFKYHLAMIKWYLEALGGSEAELANFEEFIAQFEINLQHYKGKGNPEVEALRKEAAAIRDELQAYRHN
B2: D-domain SEQ ID NO: 277 (designed binder)
chain: MGSWYHFKYHLALIKWYLEALGGSEAELAHFEHWIAEFEWTLQQYKGKGNPEVEALRKEAAAIRDELQAYRHN
B3: D-domain SEQ ID NO: 279 (designed binder)
chain: B2 chain with Y5L, H6S, Y9H, H30S, H33A, E37L, W40H, T41Q
B4: D-domain SEQ ID NO: 284 (designed binder)
chain: B2 chain with H6Q, L13I, H30G, H33N, W34Y, E37T, W40Q, T41E
B5: D-domain SEQ ID NO: 274 (designed binder)
chain: B2 chain with Y5V, H6D, L13V, H30D, H33N, E37H, W40S, T41I
B6: D-domain SEQ ID NO: 287 (designed binder)
chain: B2 chain with Y5V, H6N, H10K, L13I, W16Y, Y17M, H30F, H33D, W40R
B7: D-domain SEQ ID NO: 283 (designed binder)
chain: B1 chain with Q5Y, M13I, Y17W, N30D, E33H, F34Y, Q37D, I40R, H44E
B8: D-domain SEQ ID NO: 281 (designed binder)
chain: B2 chain with Y5I, H6E, H10K, L13I, W16F, E37D, W40F, T41V
B9: D-domain SEQ ID NO: 275 (designed binder)
chain: MGSWVEFKYHLAVIKFTLEALGGSEAELADFEEEIARFEMILQQYKGKGNPEVEALRKEAAAIRDELQAYRHN
B10: D-domain SEQ ID NO: 278 (designed binder)
chain: B2 chain with Y5Q, H6G, W16F, I35L, W40H, T41D, Q44T
B11: D-domain SEQ ID NO: 288 (designed binder)
chain: MGSWSNFKYRLAVIKYMLEALGGSEAELAFFEDWIADFELHLQVYKGKGNPEVEALRKEAAAIRDELQAYRHN
B12: D-domain SEQ ID NO: 285 (designed binder)
chain: B2 chain with Y5S, L13I, W16F, H30G, H33I, E37K, W40D, T41E, Q44M
B13: D-domain SEQ ID NO: 289 (designed binder)
chain: B11 chain with S5T, R10K, Y16F, D37G, L40I, H41D, V44N
B14: D-domain SEQ ID NO: 280 (designed binder)
chain: B2 chain with Y5S, H6E, H10K, H33G, E37N, W40T, Q44K
B15: D-domain SEQ ID NO: 297 (designed binder)
chain: MGSWGNFKYRLAIIKFHLEALGSSEAELATFEAWIANFESMLQNYKGKGNPEVEALRKEAAAIRDELQAYRHN
B16: D-domain SEQ ID NO: 316 (designed binder)
chain: MGSWLDFKEGLADIKRSLEALGGSEAELADFEGVIALFEWKLQTYKGKGNPEVEALRKEAAAIRDELQAYRHN
B17: D-domain SEQ ID NO: 304 (designed binder)
chain: MGSWSYFKYGLATIKEKLEALGGSEAELADFETWIAMFEKQLQEYKGKGNPEVEALRKEAAAIRDELQAYRHN
B18: D-domain SEQ ID NO: 313 (designed binder)
chain: B17 chain with S5G, Y9H, T13H, E16S, K17S, T33V, M37A, K40N, Q41E
B19: D-domain SEQ ID NO: 307 (designed binder)
chain: B17 chain with S5V, Y9H, T13V, E16M, K17R, M37Q, K40M, Q41T
B20: D-domain SEQ ID NO: 301 (designed binder)
chain: B17 chain with S5I, T13H, E16T, K17R, T33Q, M37E, Q41M, E44D
B21: D-domain SEQ ID NO: 312 (designed binder)
chain: B17 chain with S5T, Y9F, T13H, E16D, K17S, T33Q, K40Q, Q41D, E44V
B22: D-domain SEQ ID NO: 310 (designed binder)
chain: B17 chain with S5T, T13L, E16Y, K17R, T33E, M37Q, K40V, Q41S, E44H
B23: D-domain SEQ ID NO: 306 (designed binder)
chain: B17 chain with S5Q, T13I, E16I, T33A, M37T, E44H
B24: D-domain SEQ ID NO: 309 (designed binder)
chain: B17 chain with S5Y, T13V, E16G, M37K, K40N, Q41H, E44S
B25: D-domain SEQ ID NO: 305 (designed binder)
chain: B17 chain with S5H, Y9N, T13I, T33I, K40M, Q41E
B26: D-domain SEQ ID NO: 303 (designed binder)
chain: B17 chain with S5E, E16M, K17H, T33H, M37H, K40H, E44M
B27: D-domain SEQ ID NO: 298 (designed binder)
chain: B17 chain with T13I, E16I, K17R, T33R, M37A, K40H, Q41D, E44Y
B28: D-domain SEQ ID NO: 300 (designed binder)
chain: B17 chain with Y9W, T13H, E16L, K17R, T33F, M37E, K40G, Q41L, E44D
B29: D-domain SEQ ID NO: 308 (designed binder)
chain: B17 chain with S5V, T13V, M37E, K40F, Q41G, E44Q
B30: D-domain SEQ ID NO: 314 (designed binder)
chain: MGSWGYFKTGLAIIKAQLEALGGSEAELADFELWIAQFEETLQFYKGKGNPEVEALRKEAAAIRDELQAYRHN
B31: D-domain SEQ ID NO: 302 (designed binder)
chain: B30 chain with T9Y, I13T, A16H, Q17R, Q37K, T41Q, F44V
B32: D-domain SEQ ID NO: 299 (designed binder)
chain: B17 chain with Y9F, T13H, E16L, K17R, T33Q, M37S, K40E, E44T
B33: D-domain SEQ ID NO: 311 (designed binder)
chain: B17 chain with S5D, T13L, E16I, T33V, M37Q, K40M, Q41A, E44V
B34: D-domain SEQ ID NO: 320 (designed binder)
chain: MGSWDHFKYNLAWIKKYLEALGGSEAELATFEWYIANFEKRLQDYKGKGNPEVEALRKEAAAIRDELQAYRHN
B35: D-domain SEQ ID NO: 315 (designed binder)
chain: MGSWAYFKYGLAVIKLHLEALGGSEAELADFERYIAEFEYELQAYKGKGNPEVEALRKEAAAIRDELQAYRHN
B36: D-domain SEQ ID NO: 286 (designed binder)
chain: MGSWVGFKAHLAIIKWYLEALGGSEAELAGFEIFIADFEALLQMYKGKGNPEVEALRKEAAAIRDELQAYRHN
B37: D-domain SEQ ID NO: 290 (designed binder)
chain: B11 chain with S5T, N6G, V13I, Y16F, D33Q, L40N, H41E, V44Y
B38: D-domain SEQ ID NO: 291 (designed binder)
chain: B11 chain with S5H, V13I, Y16F, F30W, D33N, L40D, H41S, V44D
B39: D-domain SEQ ID NO: 296 (designed binder)
chain: MGSWFSFKHHLAVIKWNLEALGGSEAELASFEEQIAEFESVLQAYKGKGNPEVEALRKEAAAIRDELQAYRHN
B40: D-domain SEQ ID NO: 322 (designed binder)
chain: MGSWREFKYGLAHIKRVLEALGGSEAELAVFEYYIAKFEQELQEYKGKGNPEVEALRKEAAAIRDELQAYRHN
B41: D-domain SEQ ID NO: 323 (designed binder)
chain: B40 chain with R5I, E6Q, V17T, Y33W, K37D, E41Q, E44G
B42: D-domain SEQ ID NO: 321 (designed binder)
chain: MGSWFTFKQNLAWIKLHLEALGGSEAELARFEYYIADFENKLQLYKGKGNPEVEALRKEAAAIRDELQAYRHN
B43: D-domain SEQ ID NO: 295 (designed binder)
chain: MGSWFYFKQKLAFIKWYLEALGGSEAELANFEIYIAEFEVMLQQYKGKGNPEVEALRKEAAAIRDELQAYRHN
B44: D-domain SEQ ID NO: 292 (designed binder)
chain: B11 chain with S5F, N6A, Y9H, D33H, D37Q, L40H, H41D, V44Q
B45: D-domain SEQ ID NO: 294 (designed binder)
chain: MGSWYKFKHKLAVIKYMLEALGGSEAELAWFEEWIAEFEVTLQDYKGKGNPEVEALRKEAAAIRDELQAYRHN
B46: D-domain SEQ ID NO: 293 (designed binder)
chain: B11 chain with S5Y, N6E, Y9H, D33N, D37Q, L40H, H41E, V44T
B47: D-domain SEQ ID NO: 317 (designed binder)
chain: MGSWEVFKHELAVIKDYLEALGGSEAELAHFEWGIAWFEGFLQDYKGKGNPEVEALRKEAAAIRDELQAYRHN
B48: D-domain SEQ ID NO: 318 (designed binder)
chain: MGSWIVFKQSLAWIKEHLEALGGSEAELAEFEFYIANFEHTLQNYKGKGNPEVEALRKEAAAIRDELQAYRHN
B49: D-domain SEQ ID NO: 319 (designed binder)
chain: B34 chain with D5I, H6Y, Y9D, N10S, W13Y, W33Y, K40H, R41E, D44Y

The target of the assay is T1, BCMA. Put plainly: ELISA, format not described. Also on record: unit not given here.
Consider B1, for which the ELISA_avg amounted to 9.55.

The molecule B2 yielded an ELISA_avg of 8.85.

Regarding B3, the ELISA_avg is 6.3.

As for B4, the ELISA_avg came out at 18.4.

As for B5, the ELISA_avg came out at 10.4.

Molecule B6 yielded an ELISA_avg of 7.39.

In the case of B7, the ELISA_avg amounted to 8.63.

In the case of B8, the ELISA_avg is 14.9.

In turn, B9 gave an ELISA_avg of 6.92.

In the case of B10, the ELISA_avg was found to be 21.2.

B11 came in with an ELISA_avg of 9.34.

B12 showed an ELISA_avg of 9.34.

The molecule B13 showed an ELISA_avg of 11.4.

B14 returned an ELISA_avg of 11.3.

As for B15, the ELISA_avg was determined as 22.7.

B16 returned an ELISA_avg of 3.03.

Turning to B17, the ELISA_avg was determined as 18.1.

For B18, the ELISA_avg was 18.5.

In the case of B19, the ELISA_avg was found to be 21.4.

As to B20, the ELISA_avg is 21.1.

As for B21, the ELISA_avg was 17.

As to B22, the ELISA_avg turned out to be 15.2.

Take B23: the ELISA_avg is 10.3.

Molecule B24 had an ELISA_avg of 3.84.

As for B25, the ELISA_avg stood at 19.9.

Turning to B26, the ELISA_avg was 18.4.

For B27, the ELISA_avg stood at 13.3.

In turn, B28 came in with an ELISA_avg of 17.6.

As to B29, the ELISA_avg was 17.6.

Molecule B30 came in with an ELISA_avg of 12.8.

In turn, B31 yielded an ELISA_avg of 14.

As to B32, the ELISA_avg turned out to be 18.4.

In the case of B33, the ELISA_avg came to 15.8.

As to B34, the ELISA_avg came out at 9.81.

The molecule B35 had an ELISA_avg of 13.4.

Molecule B36 displayed an ELISA_avg of 9.71.

On to B37, for which the ELISA_avg was found to be 13.9.

The molecule B38 registered an ELISA_avg of 13.6.

For B39, the ELISA_avg amounted to 6.45.

In the case of B40, the ELISA_avg came to 14.7.

For B41, the ELISA_avg turned out to be 8.36.

With B42, the ELISA_avg came out at 14.2.

The molecule B43 had an ELISA_avg of 7.23.

Take B44: the ELISA_avg was 12.

The molecule B45 displayed an ELISA_avg of 4.54.

Turning to B46, the ELISA_avg is 3.71.

Regarding B47, the ELISA_avg came out at 9.33.

Turning to B48, the ELISA_avg was 10.6.

As to B49, the ELISA_avg came to 3.2.
